{
  "source": "the Human Domainome abundance scans (Beltran et al. 2025)",
  "parents": {"B1": {"name": "POU domain, class 6, transcription factor 2, residues 609 to 663; numbered along this chain, P78424 (parent)", "chain": "KRRTSFTPQALEILNAHFEKNTHPSGQEMTEIAEKLNYDREVVRVWFCNKRQALK"}},
  "note": "± gives the uncertainty stated by the source.",
  "data": [
    {"variants_of": "B1", "assay": "abundance fitness (aPCA) (normalised: wild type 0, dead -1); higher = more abundant; growth selection in yeast, the domain comes from the species named", "settings": "Homo sapiens", "values": [
      {"variant": "KRRTSFTPQALEILNAHFEKNTHDSGQEMTEIAEKLNYDREVVRVWFCNKRQALK", "note": "[P24D]", "abundance fitness": "-0.792 ± 0.12"},
      {"variant": "KRRTSFTPQALEILNAHFEKNTHPSGQEMTEIAEKLNYDRGVVRVWFCNKRQALK", "note": "[E41G]", "abundance fitness": "-0.186 ± 0.064"},
      {"variant": "KRRTSFTPQALEILNAHFEKNTHPSGQEMTEIAEKLNYDRLVVRVWFCNKRQALK", "note": "[E41L]", "abundance fitness": "-0.617 ± 0.07"},
      {"variant": "KRRTSFTPQALEILNAHFEKNTHPSGQEMTEIAEKLKYDREVVRVWFCNKRQALK", "note": "[N37K]", "abundance fitness": "-0.036 ± 0.11"},
      {"variant": "KRRTSFTPQALEILNAHFEKNTHPSGQEMTEIAEKLNYDREVVRVWCCNKRQALK", "note": "[F47C]", "abundance fitness": "-0.843 ± 0.087"},
      {"variant": "KRRTSFTPQALEILNAHFEKNTHPSGQEMTEIAEKLNYDREVVRVWDCNKRQALK", "note": "[F47D]", "abundance fitness": "-0.762 ± 0.13"},
      {"variant": "KRRTSFTPQALEILNAHFEKNAHPSGQEMTEIAEKLNYDREVVRVWFCNKRQALK", "note": "[T22A]", "abundance fitness": "0.006 ± 0.092"},
      {"variant": "KRRTSFTPQALEILNAHFEKNDHPSGQEMTEIAEKLNYDREVVRVWFCNKRQALK", "note": "[T22D]", "abundance fitness": "-0.037 ± 0.12"},
      {"variant": "KRRTSFTPQALEILNAHFEKNEHPSGQEMTEIAEKLNYDREVVRVWFCNKRQALK", "note": "[T22E]", "abundance fitness": "-0.098 ± 0.19"},
      {"variant": "KRCTSFTPQALEILNAHFEKNTHPSGQEMTEIAEKLNYDREVVRVWFCNKRQALK", "note": "[R3C]", "abundance fitness": "-0.236 ± 0.12"},
      {"variant": "KRRTMFTPQALEILNAHFEKNTHPSGQEMTEIAEKLNYDREVVRVWFCNKRQALK", "note": "[S5M]", "abundance fitness": "-0.127 ± 0.1"},
      {"variant": "KRRTPFTPQALEILNAHFEKNTHPSGQEMTEIAEKLNYDREVVRVWFCNKRQALK", "note": "[S5P]", "abundance fitness": "-0.032 ± 0.12"},
      {"variant": "KRRTYFTPQALEILNAHFEKNTHPSGQEMTEIAEKLNYDREVVRVWFCNKRQALK", "note": "[S5Y]", "abundance fitness": "-0.147 ± 0.1"},
      {"variant": "KRRTKFTPQALEILNAHFEKNTHPSGQEMTEIAEKLNYDREVVRVWFCNKRQALK", "note": "[S5K]", "abundance fitness": "0.035 ± 0.12"},
      {"variant": "KRRTWFTPQALEILNAHFEKNTHPSGQEMTEIAEKLNYDREVVRVWFCNKRQALK", "note": "[S5W]", "abundance fitness": "-0.11 ± 0.082"},
      {"variant": "KRRTNFTPQALEILNAHFEKNTHPSGQEMTEIAEKLNYDREVVRVWFCNKRQALK", "note": "[S5N]", "abundance fitness": "-0.075 ± 0.12"},
      {"variant": "KRRTHFTPQALEILNAHFEKNTHPSGQEMTEIAEKLNYDREVVRVWFCNKRQALK", "note": "[S5H]", "abundance fitness": "-0.245 ± 0.13"},
      {"variant": "KRRTSFTMQALEILNAHFEKNTHPSGQEMTEIAEKLNYDREVVRVWFCNKRQALK", "note": "[P8M]", "abundance fitness": "0.037 ± 0.17"},
      {"variant": "KRRTSFTPQALEILNAHFEKNTHPSGQEMTEIAEKLNYDTEVVRVWFCNKRQALK", "note": "[R40T]", "abundance fitness": "-0.011 ± 0.091"},
      {"variant": "KRRTSFTPQALEILNAHFEKNTHPSGQEMTEIAEKLNYDIEVVRVWFCNKRQALK", "note": "[R40I]", "abundance fitness": "-0.029 ± 0.12"},
      {"variant": "KRRTSFTPQALEILNAHFEKNTHPSGQEMTEIAEKLNYDLEVVRVWFCNKRQALK", "note": "[R40L]", "abundance fitness": "0.061 ± 0.062"},
      {"variant": "KRRTSFTPQALEILNAHFEKNTHPSGQRMTEIAEKLNYDREVVRVWFCNKRQALK", "note": "[E28R]", "abundance fitness": "-0.175 ± 0.091"},
      {"variant": "KRRTSFTPQALEILNAHFEKNTHPSGQCMTEIAEKLNYDREVVRVWFCNKRQALK", "note": "[E28C]", "abundance fitness": "-0.324 ± 0.12"},
      {"variant": "KRRTSFTPQALEILNAHFEKNTHPSGQEMTEIAEKLNYDREVVRVWFCLKRQALK", "note": "[N49L]", "abundance fitness": "-0.292 ± 0.1"},
      {"variant": "KRRTSFTPQALEILNAHFEKNTHPSGQEMTEIAEKLNYDREVVRVWFCHKRQALK", "note": "[N49H]", "abundance fitness": "-0.18 ± 0.2"},
      {"variant": "KRRTSFTPQALEILNAHFEKNTHPSGQEMTEIAEKLNYDREVVRVWFCAKRQALK", "note": "[N49A]", "abundance fitness": "-0.038 ± 0.14"},
      {"variant": "KRRTSFTPQALEILNAHFEKNTHPSGQEMTEIAEKLNYDREVVRVWFCIKRQALK", "note": "[N49I]", "abundance fitness": "-0.226 ± 0.27"},
      {"variant": "NRRTSFTPQALEILNAHFEKNTHPSGQEMTEIAEKLNYDREVVRVWFCNKRQALK", "note": "[K1N]", "abundance fitness": "0.043 ± 0.14"},
      {"variant": "KRRTSFTPQALEISNAHFEKNTHPSGQEMTEIAEKLNYDREVVRVWFCNKRQALK", "note": "[L14S]", "abundance fitness": "-1.05 ± 0.14"},
      {"variant": "KRRTSFTPQALEIYNAHFEKNTHPSGQEMTEIAEKLNYDREVVRVWFCNKRQALK", "note": "[L14Y]", "abundance fitness": "-0.878 ± 0.24"},
      {"variant": "KRRTSFTPQALEILNAHFEKNTHPSGQEMTEVAEKLNYDREVVRVWFCNKRQALK", "note": "[I32V]", "abundance fitness": "-0.27 ± 0.14"},
      {"variant": "KRRTSFTPQALEILNAHFETNTHPSGQEMTEIAEKLNYDREVVRVWFCNKRQALK", "note": "[K20T]", "abundance fitness": "-0.057 ± 0.088"},
      {"variant": "KRRTSFTPQALEILNAHFEDNTHPSGQEMTEIAEKLNYDREVVRVWFCNKRQALK", "note": "[K20D]", "abundance fitness": "-0.291 ± 0.13"},
      {"variant": "KRRTSFTPQALEILNAHFEKNTHPSGQEMTEIAEKLNYDREVVRVWFCNKRQAIK", "note": "[L54I]", "abundance fitness": "-0.242 ± 0.25"},
      {"variant": "KRRTSFTPQALEILNAHFEKNTHPSGQEMTEIAEKLNYDREVVRVWFCNKRQACK", "note": "[L54C]", "abundance fitness": "-0.258 ± 0.36"},
      {"variant": "KRRTSFTPQALEILNAHFEKNTHPSGQEMTEIAEKLNYDREVVRVWFCNKRQAMK", "note": "[L54M]", "abundance fitness": "-0.106 ± 0.19"},
      {"variant": "KRRTSFTPQALEILMAHFEKNTHPSGQEMTEIAEKLNYDREVVRVWFCNKRQALK", "note": "[N15M]", "abundance fitness": "-0.132 ± 0.11"},
      {"variant": "KGRTSFTPQALEILNAHFEKNTHPSGQEMTEIAEKLNYDREVVRVWFCNKRQALK", "note": "[R2G]", "abundance fitness": "-0.034 ± 0.065"},
      {"variant": "KARTSFTPQALEILNAHFEKNTHPSGQEMTEIAEKLNYDREVVRVWFCNKRQALK", "note": "[R2A]", "abundance fitness": "0.038 ± 0.085"},
      {"variant": "KFRTSFTPQALEILNAHFEKNTHPSGQEMTEIAEKLNYDREVVRVWFCNKRQALK", "note": "[R2F]", "abundance fitness": "-0.056 ± 0.14"},
      {"variant": "KRRTSFTPQALEILNAHFEKNTMPSGQEMTEIAEKLNYDREVVRVWFCNKRQALK", "note": "[H23M]", "abundance fitness": "-0.275 ± 0.15"},
      {"variant": "KRRTSFTPQALEILNAHFEKNTIPSGQEMTEIAEKLNYDREVVRVWFCNKRQALK", "note": "[H23I]", "abundance fitness": "-0.169 ± 0.2"},
      {"variant": "KRRTSFTPQALEILNAHFEKNTPPSGQEMTEIAEKLNYDREVVRVWFCNKRQALK", "note": "[H23P]", "abundance fitness": "-1.1 ± 0.41"},
      {"variant": "KRRTSFTPQALEILNAHFEKNTCPSGQEMTEIAEKLNYDREVVRVWFCNKRQALK", "note": "[H23C]", "abundance fitness": "0.018 ± 0.089"},
      {"variant": "KRRTSFTPQAMEILNAHFEKNTHPSGQEMTEIAEKLNYDREVVRVWFCNKRQALK", "note": "[L11M]", "abundance fitness": "-0.092 ± 0.14"},
      {"variant": "KRRTSFTPQAREILNAHFEKNTHPSGQEMTEIAEKLNYDREVVRVWFCNKRQALK", "note": "[L11R]", "abundance fitness": "-0.222 ± 0.074"},
      {"variant": "KRRTSFTPQLLEILNAHFEKNTHPSGQEMTEIAEKLNYDREVVRVWFCNKRQALK", "note": "[A10L]", "abundance fitness": "-0.51 ± 0.13"},
      {"variant": "KRRTSFTPQQLEILNAHFEKNTHPSGQEMTEIAEKLNYDREVVRVWFCNKRQALK", "note": "[A10Q]", "abundance fitness": "-0.107 ± 0.17"}
    ]}
  ]
}
